Article PMC3835729

Tested on: Nc1ncnc2c1ncn2[C@@H]1O[C@H](COP(=O)(O)NCCc2c[nH]c3ccccc23)[C@@H](O)[C@H]1O
Experiment: purified protein
Settings: 20 mM HEPES, 1 mM MgCl2, pH 7.2, 25 °C

| Substance | Km [µM] | kcat [s⁻¹] | kcat/Km [M⁻¹ s⁻¹] |
| --- | --- | --- | --- |
| human histidine triad nucleotide binding protein 1 (hHint1) (Homo sapiens) | 0.13 ± 0.02 | 2.1 ± 0.1 | 1.5e+07 ± 3e+06 |
| human histidine triad nucleotide binding protein 1 (hHint1) (Homo sapiens; H51A) | 1.8 ± 0.2 | 0.53 ± 0.02 | 300000 ± 40000 |
| human histidine triad nucleotide binding protein 1 (hHint1) (Homo sapiens; H114A) | 0.27 ± 0.05 |  |  |
